The source of these data is patent US20060148030A1, “Nuclear receptor err y 3” (FUJISAWA PHARMACEUTICAL CO., LTD, priority 2002, published 2006).

This test concerns the target T1, VDR (Rattus norvegicus, UniProt P13053).
T1 construct: expressed in transfected cells; host or cells: CV-1 (African green monkey kidney)
T1 sequence (P13053 1-423): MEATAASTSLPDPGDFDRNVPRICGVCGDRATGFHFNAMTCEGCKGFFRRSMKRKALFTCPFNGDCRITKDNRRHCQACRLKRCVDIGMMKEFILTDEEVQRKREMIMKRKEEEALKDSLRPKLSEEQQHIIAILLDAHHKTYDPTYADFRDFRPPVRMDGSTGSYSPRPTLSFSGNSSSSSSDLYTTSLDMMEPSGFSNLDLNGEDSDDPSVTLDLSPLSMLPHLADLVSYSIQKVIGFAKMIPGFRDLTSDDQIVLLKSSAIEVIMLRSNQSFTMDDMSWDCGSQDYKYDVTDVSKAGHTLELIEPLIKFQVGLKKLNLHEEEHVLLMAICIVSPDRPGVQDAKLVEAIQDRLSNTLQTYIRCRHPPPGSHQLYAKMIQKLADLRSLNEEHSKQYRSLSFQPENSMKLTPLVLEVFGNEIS
T1 sequence (P19793 1-462 partner): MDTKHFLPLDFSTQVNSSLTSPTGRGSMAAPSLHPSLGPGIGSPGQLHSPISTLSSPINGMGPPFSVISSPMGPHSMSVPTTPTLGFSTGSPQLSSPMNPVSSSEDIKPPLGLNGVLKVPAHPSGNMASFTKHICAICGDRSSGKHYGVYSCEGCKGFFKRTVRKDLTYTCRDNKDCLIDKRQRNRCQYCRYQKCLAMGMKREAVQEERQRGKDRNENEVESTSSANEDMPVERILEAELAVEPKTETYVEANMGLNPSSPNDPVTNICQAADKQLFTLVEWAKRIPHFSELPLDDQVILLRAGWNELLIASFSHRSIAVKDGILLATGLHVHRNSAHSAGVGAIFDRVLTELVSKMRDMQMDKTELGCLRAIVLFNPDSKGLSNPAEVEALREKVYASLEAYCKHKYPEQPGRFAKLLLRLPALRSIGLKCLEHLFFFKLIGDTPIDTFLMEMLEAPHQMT
The test can be described thus: Reporter gene assay, ERRγ3 coexisted with VDR, pGVP2-VDRE in CV-1 cells. It counts as cell-based. The settings on record: 5×10^−8 M calcitriol, FIG. 23. The protocol: Transfection was performed as follows: CV-1 cells were resuspended in DMEM supplemented with 10% fetal bovine serum, 2000 U/l of penicillin G, and 100 mg/l of streptomycin to a concentration of 2×10^5 cells/2.5 ml. This was then seeded to a 6-well plate at 2.5 ml per well, and incubated for 18-24 hours in a CO2 incubator at 37° C. and 5% CO2. 1 μg of each of the expression plasmids for the transcription factors, the luciferase reporter plasmid, and another luciferase reporter plasmid used for normalization of the measured values (pRL-TK), were dissolved in Opti-MEM (Gibco BRL), to a total of 150 μl. 7 μl of the transfection reagent LipofectAMINE 2000 (Gibco BRL) was diluted in 143 μl of Opti-MEM, and this was added to the mixture drop by drop while stirring. The mixture was incubated for 20 minutes. […] Luciferase activity was measured using the Dual-Luciferase™ Reporter Assay System (Promega). […] The protocol for measurement was as follows: 50 μl of Luciferase Assay Reagent II was added to each well, stirred for 0.3 seconds, and measured for one second. 50 μl of Stop&Glo™ Reagent was then added, stirred for 0.3 seconds, and measured for one second. The measured values for firefly luciferase activity were corrected by dividing by the value for the Renilla luciferase activity, the internal control. Average values and standard errors were calculated from triplicate samples. […]
For orientation: A reporter such as luciferase makes a cellular process visible.

B1: ERRγ3: novel ERRγ isoform, nuclear receptor protein of 396 amino acids (SEQ ID NO: 2) lacking part of the DNA binding domain (protein, listed as Homo sapiens)
chain: MSNKDRHIDSSCSSFIKTEPSSPASLTDSVNHHSPGGSSDASGSYSSTMNGHQNGLDSPPLYPSAPILGGSGPVRKLYDDCSSTIVEDPQTKCEYMLNSMPKRLCLVCGDIASGYHYGVASCEACKAFFKRTIQGVRLDRVRGGRQKYKRRIDAENSPYLNPQLAQPAKKPYNKIVSHLLVAEPEKIYAMPDPTVPDSDIKALTTLCDLADRELVVIIGWAKHIPGFSTLSLADQMSLLQSAWMEILILGVVYRSLSFEDELVYADDYIMDEDQSKLAGLLDLNNAILQLVKKYKSMKLEKEEFVTLKAIALANSDSMHIEDVEAVQKLQDVLHEALQDYEAGQHMEDPRRAGKMLMTLPLLRQTSTKAVQHFYNIKLEGKVPMHKLFLEMLEAKV
As to B1, the “modifying effect on the transcriptional stimulation activity of VDR” value is “did not show a significant modifying effect”.
